Source: patent US8367368B2, “D-serine dehydratase and use thereof” (National University Corporation Nagoya University, priority 2006, dated 2013)
“Also recorded” adds a separate entry of the source. Each block holds one molecule with its values, some of them ahead of it.

Experiments:
Type in all cases: biochemical
[1] = molecular target: T1, novel D-serine dehydratase (Saccharomyces cerevisiae, UniProt P53095); test: Influence of metal ion and EDTA on enzymatic activity, Nessler method
T1 construct: made in house; host or cells: Escherichia coli BL21 (DE3)
T1 sequence (P53095 1-428): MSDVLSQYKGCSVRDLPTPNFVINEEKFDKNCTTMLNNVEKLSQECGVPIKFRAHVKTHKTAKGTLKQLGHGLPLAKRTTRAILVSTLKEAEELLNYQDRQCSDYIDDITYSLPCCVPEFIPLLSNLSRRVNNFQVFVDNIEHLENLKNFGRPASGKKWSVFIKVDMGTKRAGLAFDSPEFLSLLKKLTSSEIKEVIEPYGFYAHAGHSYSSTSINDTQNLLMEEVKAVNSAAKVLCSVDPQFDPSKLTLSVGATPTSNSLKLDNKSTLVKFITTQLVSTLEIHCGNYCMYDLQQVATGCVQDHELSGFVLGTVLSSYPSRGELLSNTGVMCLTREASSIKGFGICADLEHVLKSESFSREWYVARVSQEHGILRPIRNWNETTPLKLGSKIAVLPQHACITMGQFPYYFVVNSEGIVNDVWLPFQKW
Protocol: (§1) To a reaction solution (final volume: 200 μl) containing 50 mM of HEPES-NaOH buffer (pH 8.0), […] of pyridoxal-5′-phosphate and 10 mM of D-serine, an appropriate amount of D-serine dehydratase was added and incubated at 30° C. Thereafter, trichloroacetic acid (final concentration: 5%) was added to stop the reaction. Ammonia in the centrifuged supernatant was quantified by using a Nessler reagent.
The influence and effect of metal ion on the activity of the novel enzyme were examined by the following method. The compounds shown in FIG. 5 were incubated with untreated novel enzyme and 2 mM EDTA, and then dialyzed with Tris buffer solution. The D-serine dehydratase activity of the novel enzyme was measured by a Nessler method in the presence of 0.05 mM or 0.5 mM of any of KCl, NaCl, MnCl2, MgCl2, CaCl2, NiSO4, CuSO4 and ZnCl2.

[2] = Effect of pH on enzymatic activity, Nessler method; conditions: MOPS, MES, HEPES, Tris buffers
Protocol: as §1
The relationship between the activity of the novel enzyme and pH at the reaction was examined by the following method. In the Nessler method, buffer solution was changed to MOPS (pH 6.5-8.0), MES (pH 6.0-6.5), HEPES (pH 7.0-8.5), and Tris (pH 7.5-9.0), respectively. By using the reaction solution, the D-serine dehydratase activity of the novel enzyme was measured.

[3] = Dynamic characteristic (reciprocal plot of rate against D-serine concentration), Nessler method; conditions: substrate D-serine
Protocol: as §1
The dynamic characteristic of the novel enzyme was examined by the following method. In the Nessler method, the concentration of D-serine was changed and the D-serine dehydratase activity of the novel enzyme in the respective concentrations of D-serine was measured. The inverse number of the obtained rate was plotted to the inverse number of the D-serine concentration. Then, the maximum rate was calculated from the inverse number of the y section and Km value was calculated from the inverse number of the x section.

[4] = Substrate-specificity by the Nessler method, D-threonine as substrate; conditions: same conditions as D-serine
Protocol: (§2) To a reaction solution (final volume: 200 μl) containing 50 mM of HEPES-NaOH buffer (pH 8.0), […] of pyridoxal-5′-phosphate and 10 mM of D-serine, an appropriate amount of D-serine dehydratase was added and incubated at 30° C. Thereafter, trichloroacetic acid (final concentration: 5%) was added to stop the reaction. Ammonia in the centrifuged supernatant was quantified by using a Nessler reagent. The substrate-specificity of the novel enzyme was examined by the following method. That is to say, as the substrate, L-serine and D-threonine in addition to D-serine were prepared, and the reactivity of the enzyme with respect to each substrate was examined by the Nessler method. Note here that the reactivity of the enzyme with respect to L-serine or D-threonine was examined by the Nessler method in the same conditions as in the case of D-Serine except that L-serine (Wako Pure Chemical Industries, Ltd.) or D-threonine (Wako Pure Chemical Industries, Ltd.) was used as a substrate.

[5] = Substrate-specificity by the Nessler method, L-serine as substrate; conditions: same conditions as D-serine
Protocol: as §2

[6] = D-serine dehydratase activity of the purified enzyme, Nessler method; conditions: 10 mM D-serine, HEPES-NaOH pH 8.0, 30° C.
Protocol: as §1, with “The activity of serine dehydratase was measured as follows: ammonia as a reaction product was measured by a Nessler method or pyruvic acid as a reaction product was measured by coupling with lactate dehydrogenase and by oxidation of NADH. Hereinafter, outline of each method is shown. To” for “To”

Molecule: O=C(O)CN(CCN(CC(=O)O)CC(=O)O)CC(=O)O [EDTA]
effect of EDTA on enzymatic activity ([1]; incubated with 2 mM EDTA, then dialyzed with Tris buffer): mostly deactivated; also recorded: inhibited

effect of zinc on enzymatic activity ([1]; addition of zinc to EDTA-treated enzyme, low concentration): activated
zinc concentration at which the enzymatic activity was increased most ([1]; same experiment while changing the zinc concentration): 0.005 mM
Molecule: [Cl-].[Cl-].[Zn+2] [zinc, ZnCl2]

B1: novel D-serine dehydratase: protein of Saccharomyces cerevisiae, YGL196W (SEQ ID NO: 1), with D-serine dehydratase activity; recombinant, His-tagged, expressed in Escherichia coli (protein, listed as Saccharomyces cerevisiae)
chain: MSDVLSQYKGCSVRDLPTPNFVINEEKFDKNCTTMLNNVEKLSQECGVPIKFRAHVKTHKTAKGTLKQLGHGLPLAKRTTRAILVSTLKEAEELLNYQDRQCSDYIDDITYSLPCCVPEFIPLLSNLSRRVNNFQVFVDNIEHLENLKNFGRPASGKKWSVFIKVDMGTKRAGLAFDSPEFLSLLKKLTSSEIKEVIEPYGFYAHAGHSYSSTSINDTQNLLMEEVKAVNSAAKVLCSVDPQFDPSKLTLSVGATPTSNSLKLDNKSTLVKFITTQLVSTLEIHCGNYCMYDLQQVATGCVQDHELSGFVLGTVLSSYPSRGELLSNTGVMCLTREASSIKGFGICADLEHVLKSESFSREWYVARVSQEHGILRPIRNWNETTPLKLGSKIAVLPQHACITMGQFPYYFVVNSEGIVNDVWLPFQKW
modifications: His tag
notes: recombinant, His-tagged, expressed in Escherichia coli
optimum pH [2]: around 8
maximum rate ([3]; Example text): 4.2 µmol/min/mg
Vmax value ([3]; FIG. 7 legend): 4.2 µmol/min/mg
Km ([3]; read-out: Km value with respect to D-serine): 460 µM
reactivity to D-threonine when the reactivity to D-serine was 100% [4]: 5%
reactivity with respect to D-threonine [4]: extremely low
reactivity with respect to D-threonine ([4]; listed as novel enzyme): low reaction
reactivity with respect to L-serine [5]: does not react with L-serine at all
reactivity with respect to L-serine ([5]; listed as novel enzyme): no reactivity
specific activity [6]: 3.7 gmol/min/mg
